± gives the standard deviation of the averaged measurements.
Assay: total protein half-life in vivo (active degradation + dilution); higher = more stable protein
[1] = E. coli NCM3722 delta-clpP, growth: N-lim chemostat, doubling time 6 h
[2] = E. coli NCM3722 delta-hslV, growth: N-lim chemostat, doubling time 6 h
[3] = E. coli NCM3722 delta-lon, growth: N-lim chemostat, doubling time 6 h
[4] = E. coli NCM3722 delta-smpB, growth: N-lim chemostat, doubling time 6 h
[5] = wild type E. coli NCM3722, growth: C-lim chemostat, doubling time 3 h
[6] = wild type E. coli NCM3722, growth: C-lim chemostat, doubling time 6 h
[7] = wild type E. coli NCM3722, growth: C-lim chemostat, doubling time 12 h
[8] = wild type E. coli NCM3722, growth: N-lim chemostat, doubling time 12 h
[9] = wild type E. coli NCM3722, growth: P-lim chemostat, doubling time 6 h
[10] = wild type E. coli NCM3722, growth: P-lim chemostat, doubling time 12 h
[11] = E. coli NCM3722 delta-clpP delta-lon delta-hslV, growth: N-lim chemostat, doubling time 6 h
[12] = wild type E. coli NCM3722, growth: N-lim chemostat, doubling time 6 h

## MRHSVLFATAFATLISTQTFAADLPGKGITVNPVQSTITEETFQTLLVSRALEKLGYTVNKPSEVDYNVGYTSLASGDATFTAVNWTPLHDNMYEAAGGDKKFYREGVFVNGAAQGYLIDKKTADQYKITNIAQLKDPKIAKLFDTNGDGKADLTGCNPGWGCEGAINHQLAAYELTNTVTHNQGNYAAMMADTISRYKEGKPVFYYTWTPYWVSNELKPGKDVVWLQVPFSALPGDKNADTKLPNGANYGFPVSTMHIVANKAWAEKNPAAAKLFAIMQLPVADINAQNAIMHDGKASEGDIQGHVDGWIKAHQQQFDGWVNEALAAQK [P0AFM2]
[1]
  total protein half-life in vivo: 4.96 ± 0.067 h
[2]
  total protein half-life in vivo: 6.88 ± 1.4 h
[3]
  total protein half-life in vivo: 5.41 h
[4]
  total protein half-life in vivo: 5.41 ± 0.17 h
[5]
  total protein half-life in vivo: 3.5 ± 0.29 h
[6]
  total protein half-life in vivo: 6.36 h
[7]
  total protein half-life in vivo: 5.21 h
[8]
  total protein half-life in vivo: 11.2 h
[9]
  total protein half-life in vivo: 6.38 h
[10]
  total protein half-life in vivo: 13.1 h

## MRIEEDLKLGFKDVLIRPKRSTLKSRSDVELERQFTFKHSGQSWSGVPIIAANMDTVGTFSMASALASFDILTAVHKHYSVEEWQAFINNSSADVLKHVMVSTGTSDADFEKTKQILDLNPALNFVCIDVANGYSEHFVQFVAKAREAWPTKTICAGNVVTGEMCEELILSGADIVKVGIGPGSVCTTRVKTGVGYPQLSAVIECADAAHGLGGMIVSDGGCTTPGDVAKAFGGGADFVMLGGMLAGHEESGGRIVEENGEKFMLFYGMSSESAMKRHVGGVAEYRAAEGKTVKLPLRGPVENTARDILGGLRSACTYVGASRLKELTKRTTFIRVQEQENRIFNNL
[11]
  total protein half-life in vivo: 6.23 ± 0.89 h
[1]
  total protein half-life in vivo: 4.46 ± 0.16 h
[2]
  total protein half-life in vivo: 4.34 ± 0.1 h
[3]
  total protein half-life in vivo: 5.46 ± 0.17 h
[4]
  total protein half-life in vivo: 4.22 ± 0.21 h
[5]
  total protein half-life in vivo: 2.77 ± 0.19 h
[6]
  total protein half-life in vivo: 6.13 ± 0.25 h
[7]
  total protein half-life in vivo: 9.9351 ± 0.0054 h
[12]
  total protein half-life in vivo: 4.71 ± 0.14 h
[8]
  total protein half-life in vivo: 7.56 ± 0.75 h
[9]
  total protein half-life in vivo: 6.2 ± 0.3 h
[10]
  total protein half-life in vivo: 11 ± 0.55 h

## MRIFVYGSLRHKQGNSHWMTNAQLLGDFSIDNYQLYSLGHYPGAVPGNGTVHGEVYRIDNATLAELDALRTRGGEYARQLIQTPYGSAWMYVYQRPVDGLKLIESGDWLDRDK [P0AE48]
[11]
  total protein half-life in vivo: 5.12 ± 0.42 h
[1]
  total protein half-life in vivo: 4.63 ± 0.19 h
[2]
  total protein half-life in vivo: 4.95 ± 0.15 h
[3]
  total protein half-life in vivo: 5.345 ± 0.014 h
[4]
  total protein half-life in vivo: 5 ± 0.3 h
[5]
  total protein half-life in vivo: 2.57 ± 0.21 h
[6]
  total protein half-life in vivo: 5.316 ± 0.012 h
[7]
  total protein half-life in vivo: 8.87 ± 0.3 h
[12]
  total protein half-life in vivo: 4.49 ± 0.61 h
[8]
  total protein half-life in vivo: 7.76 ± 0.7 h
[9]
  total protein half-life in vivo: 5.27 ± 0.36 h
[10]
  total protein half-life in vivo: 11.5 ± 1.6 h

## MRIVTAAVMASTLAVSSLSHAAEVGSGDNWHPGEELTQRSTQSHMFDGISLTEHQRQQMRDLMQQARHEQPPVNVSELETMHRLVTAENFDENAVRAQAEKMANEQIARQVEMAKVRNQMYRLLTPEQQAVLNEKHQQRMEQLRDVTQWQKSSSLKLLSSSNSRSQ [P0AE85]
[11]
  total protein half-life in vivo: 2.56 ± 0.11 h
[1]
  total protein half-life in vivo: 4.81 h
[2]
  total protein half-life in vivo: 1.65 h
[3]
  total protein half-life in vivo: > 8 h
[4]
  total protein half-life in vivo: 2.394 ± 0.017 h
[6]
  total protein half-life in vivo: 2.391 ± 0.0025 h
[8]
  total protein half-life in vivo: 3.54 ± 0.086 h
[10]
  total protein half-life in vivo: 2.99 h

## MRKFTLNIFTLSLGLAVMPMVEAAPTAQQQLLEQVRLGEATHREDLVQQSLYRLELIDPNNPDVVAARFRSLLRQGDIDGAQKQLDRLSQLAPSSNAYKSSRTTMLLSTPDGRQALQQARLQATTGHAEEAVASYNKLFNGAPPEGDIAVEYWSTVAKIPARRGEAINQLKRINADAPGNTGLQNNLALLLFSSDRRDEGFAVLEQMAKSNAGREGASKIWYGQIKDMPVSDASVSALKKYLSIFSDGDSVAAAQSQLAEQQKQLADPAFRARAQGLAAVDSGMAGKAIPELQQAVRANPKDSEALGALGQAYSQKGDRANAVANLEKALALDPHSSNNDKWNSLLKVNRYWLAIQQGDAALKANNPDRAERLFQQARNVDNTDSYAVLGLGDVAMARKDYPAAERYYQQTLRMDSGNTNAVRGLANIYRQQSPEKAEAFIASLSASQRRSIDDIERSLQNDRLAQQAEALENQGKWAQAAALQRQRLALDPGSVWITYRLSQDLWQAGQRSQADTLMRNLAQQKSNDPEQVYAYGLYLSGHDQDRAALAHINSLPRAQWNSNIQELVNRLQSDQVLETANRLRESGKEAEAEAMLRQQPPSTRIDLTLADWAQQRRDYTAARAAYQNVLTREPANADAILGLTEVDIAAGDKAAARSQLAKLPATDNASLNTQRRVALAQAQLGDTAAAQRTFNKLIPQAKSQPPSMESAMVLRDGAKFEAQAGDPTQALETYKDAMVASGVTTTRPQDNDTFTRLTRNDEKDDWLKRGVRSDAADLYRQQDLNVTLEHDYWGSSGTGGYSDLKAHTTMLQVDAPYSDGRMFFRSDFVNMNVGSFSTNADGKWDDNWGTCTLQDCSGNRSQSDSGASVAVGWRNDVWSWDIGTTPMGFNVVDVVGGISYSDDIGPLGYTVNAHRRPISSSLLAFGGQKDSPSNTGKKWGGVRADGVGLSLSYDKGEANGVWASLSGDQLTGKNVEDNWRVRWMTGYYYKVINQNNRRVTIGLNNMIWHYDKDLSGYSLGQGGYYSPQEYLSFAIPVMWRERTENWSWELGASGSWSHSRTKTMPRYPLMNLIPTDWQEEAARQSNDGGSSQGFGYTARALLERRVTSNWFVGTAIDIQQAKDYAPSHFLLYVRYSAAGWQGDMDLPPQPLIPYADW
[11]
  total protein half-life in vivo: 6.16 ± 0.12 h
[1]
  total protein half-life in vivo: 6.7 ± 0.36 h
[2]
  total protein half-life in vivo: 6.74 ± 0.87 h
[3]
  total protein half-life in vivo: 6.13 ± 0.61 h
[4]
  total protein half-life in vivo: 5.66 ± 0.14 h
[5]
  total protein half-life in vivo: 3.2 ± 0.16 h
[6]
  total protein half-life in vivo: 6.39 ± 0.4 h
[7]
  total protein half-life in vivo: 11.2 ± 1.1 h
[12]
  total protein half-life in vivo: 6.4455 ± 0.00019 h
[8]
  total protein half-life in vivo: 13.8 ± 0.91 h
[9]
  total protein half-life in vivo: 6.24 ± 0.29 h
[10]
  total protein half-life in vivo: 13.3 ± 0.38 h

## MRKGCFGLVSLVLLLLVGCRSHPEIPVNDEQSLVMESSLLAAGISAEKPFLSTSDIQPSASSTLYNERQEPVTVHYRFYWYDARGLEMHPLERPRSVTIPAHSAVTLYGSANFLGAHKVRLYLYL
[11]
  total protein half-life in vivo: 5.4 ± 0.33 h
[2]
  total protein half-life in vivo: 5.89 ± 0.42 h
[3]
  total protein half-life in vivo: 5.86 ± 0.36 h
[4]
  total protein half-life in vivo: 5.34 ± 0.22 h
[5]
  total protein half-life in vivo: 2.84 h
[6]
  total protein half-life in vivo: 5.52 h
[7]
  total protein half-life in vivo: 9.893 ± 0.025 h
[12]
  total protein half-life in vivo: 5.33 h
[8]
  total protein half-life in vivo: 10.1 h
[9]
  total protein half-life in vivo: 5.79 h
[10]
  total protein half-life in vivo: 11.8 ± 0.32 h

Source: the supplement of paper PMC11246515
